Drawing on paper PMC5013273, this text covers ZP digestion time in 0.5% pronase after 1 hr exposure of IVM porcine oocytes to 5, 50 and 125 μg/ml rOVGP1, ZP digestion time in 0.5% pronase after 1 hr exposure of IVM porcine oocytes to 125 and 250 μg/ml pOVGP1AB and ZP digestion time in 0.5% pronase after 1 hr exposure of IVM porcine oocytes to 125 and 250 μg/ml pOVGP1 for three molecules.

This test has as its target zona pellucida of in vitro matured (IVM) porcine oocytes (pig (endogenous on porcine oocytes)).

In the case of “full-length rabbit OVGP1, recombinant, histidine-tagged (natural protein)”, the ZP digestion time in 0.5% pronase after 1 hr exposure of IVM porcine oocytes to 5, 50 and 125 μg/ml rOVGP1 was determined as 989 min.

B1: truncated porcine OVGP1 lacking region D (regions A and B, 481 aa), recombinant, histidine-tagged (domain or fragment)
chain: HKLVCYFANWAFSRPGPASILPRDLDPFLCTHLVFAFASMNDSQIVAKDARDESIFYPEFNQLKERNEKLKTLLSIGGWNFGTSRFTTMLSTFTNREKFIRSAIGLLRTHGFDGLDLFFLYPGLRGSPRRDRWNFLFLLEELLLAFRREAQLTMRPRLLLSAAVSADPHVIQKAYDVRLLGRLLDFINVLSYDLHGSWEKVTGHNSPLFSLSDDPKSSAYTMNYWRKLGAPPEKLLMGFPTYGRTFRLLKASKNELGAEAVGPASPGKYTKQAGFLAYYEVCSFVQRAKKRWIDHQYVPYAYRGKEWVGYDDDISFSYKAFFIKKEHFGGAMVWTLDLDDVRGTFCGTGPFPLVYMLNDLLLKAEVSSTLSPGFGLSTTVNSSRTCPESLAVTKDLTTDLGILPLGGEAVATETHGRSDNMTVTPGGGLVAPTRPTLSFGKLTVAPEGKTESPGEKAMTP
Turning to B1, the ZP digestion time in 0.5% pronase after 1 hr exposure of IVM porcine oocytes to 125 and 250 μg/ml pOVGP1AB stood at 7.75 h.

B2: full-length porcine OVGP1 (oviduct-specific glycoprotein, oviductin), recombinant, histidine-tagged (natural protein)
chain: HKLVCYFANWAFSRPGPASILPRDLDPFLCTHLVFAFASMNDSQIVAKDARDESIFYPEFNQLKERNEKLKTLLSIGGWNFGTSRFTTMLSTFTNREKFIRSAIGLLRTHGFDGLDLFFLYPGLRGSPRRDRWNFLFLLEELLLAFRREAQLTMRPRLLLSAAVSADPHVIQKAYDVRLLGRLLDFINVLSYDLHGSWEKVTGHNSPLFSLSDDPKSSAYTMNYWRKLGAPPEKLLMGFPTYGRTFRLLKASKNELGAEAVGPASPGKYTKQAGFLAYYEVCSFVQRAKKRWIDHQYVPYAYRGKEWVGYDDDISFSYKAFFIKKEHFGGAMVWTLDLDDVRGTFCGTGPFPLVYMLNDLLLKAEVSSTLSPGFGLSTTVNSSRTCPESLAVTKDLTTDLGILPLGGEAVATETHGRSDNMTVTPGGGLVAPTRPTLSFGKLTVAPEGKTESPGEKAMTPVGHPSVTPGDMSVPPVPIQTGDRITPPRRQAVAPEKMTLPSGKRSD
Molecule B2 yielded a ZP digestion time in 0.5% pronase after 1 hr exposure of IVM porcine oocytes to 125 and 250 μg/ml pOVGP1 of 102 min.
